In patent US20240424125A1 one finds % Competition Binding data, which are given here for 2 molecules.

Assay [1] has as its target human FRα on cells (human) (UniProt P15328). In words: flow cytometry competition on H2110 cells; competitor: v23924; first of two values. (Flow cytometry measures light scatter and fluorescence of single cells or particles in a stream.)
Assay [2] shares this target. Description: flow cytometry competition on H2110 cells; competitor: v23924; second of two values.
Assay [3] has the same target. Description: flow cytometry competition on H2110 cells; competitor: Farletuzumab; first of two values.
Assay [4] has the same target. Description: flow cytometry competition on H2110 cells; competitor: Farletuzumab; second of two values.
Assay [5] has the same target. Description: flow cytometry competition on H2110 cells; competitor: Mirvetuximab (self); first of two values.
The target is the same in assay [6]. In words: flow cytometry competition on H2110 cells; competitor: Mirvetuximab (self); second of two values.
Assay [7] has the same target. Description: flow cytometry competition on H2110 cells; competitor: Mirvetuximab; first of two values.
Assay [8] has the same target. Description: flow cytometry competition on H2110 cells; competitor: Mirvetuximab; second of two values.
For assay [9] the target is unchanged. In words: flow cytometry competition on H2110 cells; competitor: Farletuzumab (self); first of two values.
The target is the same in assay [10]. In words: flow cytometry competition on H2110 cells; competitor: Farletuzumab (self); second of two values.

Chain of human FRα on cells (human) (P15328 25-234 limits assumed): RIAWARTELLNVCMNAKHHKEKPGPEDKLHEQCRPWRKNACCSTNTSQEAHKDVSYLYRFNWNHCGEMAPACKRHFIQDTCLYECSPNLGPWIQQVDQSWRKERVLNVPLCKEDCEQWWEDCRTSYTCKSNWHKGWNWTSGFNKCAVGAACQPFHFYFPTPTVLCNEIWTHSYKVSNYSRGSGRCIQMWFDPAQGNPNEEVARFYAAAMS

B1: mirvetuximab (v17716) (antibody, part only; not given: constant regions, V domains shown, not shown: another chain or arm of the molecule)
VH: QVQLVQSGAEVVKPGASVKISCKASGYTFTGYFMNWVKQSPGQSLEWIGRIHPYDGDTFYNQKFQGKATLTVDKSSNTAHMELLSLTSEDFAVYYCTRYDGSRAMDYWGQGTTVTVSS
VL: DIVLTQSPLSLAVSLGQPAIISCKASQSVSFAGTSLMHWYHQKPGQQPRLLIYRASNLEAGVPDRFSGSGSKTDFTLTISPVEAEDAATYYCQQSREYPYTFGGGTKLEIK
Regarding B1, the % Competition Binding in [1] amounted to 13%; in assay [2], 7%; in [3], 99%; in [4], 100%; in assay [5] it was 100%; in [6] it was 98%.

B2: farletuzumab (v31629) (antibody, part only; not given: constant regions, V domains shown, not shown: another chain or arm of the molecule)
VH: EVQLVESGGGVVQPGRSLRLSCSASGFTFSGYGLSWVRQAPGKGLEWVAMISSGGSYTYYADSVKGRFAISRDNAKNTLFLQMDSLRPEDTGVYFCARHGDDPAWFAYWGQGTPVTVSS
VL: DIQLTQSPSSLSASVGDRVTITCSVSSSISSNNLHWYQQKPGKAPKPWIYGTSNLASGVPSRFSGSGSGTDYTFTISSLQPEDIATYYCQQWSSYPYMYTFGQGTKVEIK
For the molecule B2, the % Competition Binding was 99% in assay [1]; 72% in [2]; 91% in [7]; 75% in [8]; 98% in [9]; 100% in assay [10].
